From the nanobody polyreactivity screen of Harvey et al. (2022)

Assay: yeast display, Sf9 membrane polyspecificity reagent, FACS + sequencing; frameworks hold sequencing errors
Outline: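 Synthetic nanobody libraries on Saccharomyces cerevisiae BJ5465 were galactose-induced for 36–48 hours, stained 1 hour at 4 °C with 10% biotinylated, detergent-solubilized Sf9 membrane reagent and enriched on streptavidin microbeads. FACS then separated cells into low and high (top ~1%) gates by anti-HA (expression) and streptavidin (reagent binding) fluorescence. Genes were colony-PCR amplified, MiSeq 2 × 250 sequenced and CDR-length filtered. A clone's polyreactivity label is that of its gate of origin.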

Sequence | polyreactivity (PSR sort gate)
QVQLVESGGGLVQAGGSLRLSCGATGSIFKTYAMGWYRQAPGKERELVAAISQRGGSTYYADSVKGRFTISRDNAKNTVYLQMNSLKPEDTAVYYCAARYAYQSYLYRFDYWGQGTQVTVSS | high polyreactivity
QVQLVESGGGLVQAGGSLRLSCGAYGRTFRLYAMGWYRQAPAKERELVAAITRGGRTTYADSVKGRFTSSRDNAQNTVYLQMNSLKPEDTAVYYCAARYVERQTDYYYWGQGTQVTVSS | low polyreactivity
QVQLVESGGGLVQAGGSLRLSCGGSGNSFNSYALGWYRQAPGKEREFVAAISGSGSSTYYADSVMGRFTISRDNAKNTVYLQINSLKPEDTAVYYCAVPYYKRYIWSNRDYWGQGTQVTVSS | high polyreactivity
QVQLVESGGGLVQAGGSLRLSCGGSGRIFYSNAMGWYRQAPGKERELFAAIRYSGVRTYYADSLKGRFTISLDNEKNTVYLQMNSLNPEYTEVYYCNVYSRTHYQTYTDDYWGQGTQVNVSS | high polyreactivity
QVQLVESGGGLVQAGGSLRLSCGSSGSIFKTNAMGWYRQAPGKERELVAANTWRGGSTYYADSVKGRFTNSRDNAKNTVYLQRNSLKPEDTAVYYCAARQYYGAASYRYYYWGQGTQVTVSS | high polyreactivity
QVQLVESGGGLVQAGGSLRLSCHASGRIIVPYVMGWYRQAPGKERELVASISDSDTSTYYADSVKGRFTMSRDNAKNTVYLQMNSLKPEDTAVYYCNVDFWGQGTQVTVSS | low polyreactivity
QVQLVESGGGLVQAGGSLRLSCPASGFIFRRYVMGWYRQSPGKERELVAAISKSAVNTYYADSVKGRFTISRDNAKNTVYLQMNSLIPEDTEVYYCNKYGYKGGVGYDYWGQGTQVTVSS | high polyreactivity
QVQLVESGGGLVQAGGSLRLSCPASGFILQYNAMGWYRQAPGKERELVAAITRSGVSTHYADSVKGRFTISRDNAKNTVYLQMNSLKPEDTAVYYCARTGHSLYSRYYYWGQGTQVTVSS | low polyreactivity
QVQLVESGGGLVQAGGSLRLSCPASGFILYPYAMGWYRQAPGKERELVAAITSRGGRTYYADSVKGRFTISRDNAKNTVYLQMNSLKPEDTAVYYCAAKRTSYYAPLKYYSWGQGTQVTVSS | high polyreactivity
QVQLVESGGGLVQAGGSLRLSCPASGFTFGRYGMGWYRQAPGKERELVAGITWSGGSTSYADSVKGRFTISRDNAKNTVYLQMYSLIPEDTAVYYCATRARYTRVHGRRYAYDYWGQGTQVTVSS | high polyreactivity
QVQLVESGGGLVQAGGSLRLSCPASGFTFYRYAMGWYRQAPGKERELVASISWRGGNTYYADSVKGRFTISRDNEKNTVYLQMNSLKPEDTAVYYCAARGGVLKGYYYWGQGTQVTVSS | high polyreactivity
QVQLVESGGGLVQAGGSLRLSCPASGIIFYRYSMGWKRQAPGKERQFVAAISRGGGSTYYADSVKGRFTISRDNAKNTFYLQMNSLKPEDTAVYYCNARDTRVTVDQYSIKRMDYWGKGTQVTVSS | high polyreactivity
QVQLVESGGGLVQAGGSLRLSCPASGITFIYYAMGWYRQAPGKEREFVAAINYRGTSTYYADSVKGRFTISRDNPKNTVYLQMNSLKPEDTAVYYCAAGPRRTWYRSLGYSFYKYYYWGQGTQVTVSS | high polyreactivity
QVQLVESGGGLVQAGGSLRLSCPASGLTFGGNAMGWYRQEPGKERELVAAISWSDDTTDYADSVKGRFTISRDNAKNTVYLQMNSLKPEDTAVYYCAARLPFEHVDYWGQGTQVTVSS | low polyreactivity
QVQLVESGGGLVQAGGSLRLSCPASGNIFVYYAMGWSRQAHGKERELVAAITSDVSTYYADSVKGRFTISRDNAKNTVYLQMNSLKPEDTAVYYCATTGYGSYVIYWGQGTQVTVSS | low polyreactivity
QVQLVESGGGLVQAGGSLRLSCPASGRILPRNAMGWYRQAPGKERELVAGISSDGSTNYADSVKGRFTISRDNAKNTVYLQMNSLKPEDTAVYYCAADGVYDPNLYGYWGQGTQVTVSS | low polyreactivity
QVQLVESGGGLVQAGGSLRLSCPASGSIFDLYAMGWYRQAPGKERELVASIRYSGGRTYYADSVKGRFTISRDNAKNTVYLQMNSLKPEDTAVYYCNRDGGYTFIMDYWGQGNQVTVSS | low polyreactivity
QVQLVESGGGLVQAGGSLRLSCPASGSIFPYYAMGCYRQAPGKERELVAAISSGDITDYADSVKGRFTISRDNAKNTVYLQMNSLKPEDTAVYYCAAATLSLYWPYLFRGSDYDYWGQGSQVTVSS | low polyreactivity
QVQLVESGGGLVQAGGSLRLSCPASGSIFYYYAMGWYRQAPGKERELVAAIRGSGSSTYYADSVKGRFTISRDNAKNTVYLQMNSLKPEDTAVYYCAAYDLLVGLQYDYWGQGTQVTVSS | low polyreactivity
QVQLVESGGGLVQAGGSLRLSCPASGSNFGVYAMAWYRQAPGKERELVAAITSSGGSTYYADSVKGRFTISRDNAKNTVYFQMNSLKPEDTAVYYCSKDSFSHSHYTRYGYWGQGSQVTVSS | low polyreactivity
QVQLVESGGGLVQAGGSLRLSCPASGSTFMKYDKGWYRQAPGIVRELVAAISWDGGSTYYADSVKGRFTISRDNAKNTVYLQMNSLKPEDTAVYYCNADYDVYLTIWYYYCEFDYWGQGSQVTVSS | low polyreactivity
QVQLVESGGGLVQAGGSLRLSCPASGSTFSPNAIGWSRQAPGKERELLDAINYSSGSTYYADSVKGRFTISRDNAKNSVYLQMNSLKPEDTAVYYCAVRSYWSSLWTLGDYWGQGTQVTVSS | low polyreactivity

Sequence | polyreactivity (PSR sort gate)
QVQLVESGGGLVQAGGSLRLSCPASGSTFSWYAMGWSRQEPGKERELVAAISYSGGTYYADSVKGRFTISRDNAKNTVYLQKNSLKPEDTAVYYCAAQRTRYGYDYWGQGTQVTVSS | high polyreactivity
QVQLVESGGGLVQAGGSLRLSCPASGSTIFGTAMGWYRQAPGKDWELVAASSYSGDSTYYADSVKGRFTISRDNAKHTVYVEMISLKPEDTAVYYCAAGFVIKYDYWGQGTQVTVSS | low polyreactivity
QVQLVESGGGLVQAGGSLRLSCPASGSTISGNTMGWYRHDPGKERELVAAISFRSGRTYYADSVKGRFTISRDNAKNTGYLQMNSLIPEDTAVYYCNAEIYTYRTGRGYSRMDYWGQGSQVTVSS | high polyreactivity
QVQLVESGGGLVQAGGSLRLSCPASGYIFYYNAMGWYRQAPGKERELVAAITSDDSTYYADSVKGRFTISRDNANNTVYLQMNSLKQEDTAVYYCNSVRYGHWYDYWGQGTQVTVSS | low polyreactivity
QVQLVESGGGLVQAGGSLRLSCPDSGLIFVANAMGWYIQAPGKERELVAAISRSGGITYYADSVKGRFTISRDNATNTVYLKMNSLKPADTEVYYCAKTLPSNGHYDYWGQGTQVTVSS | low polyreactivity
QVQLVESGGGLVQAGGSLRLSCPTSGRNLRWYAMVWYIQAPGKERELVAAIKRSGDTTYYADSVKGRFTISRDNAKNTVYLQMNSLKPEHTAVYYCAARYTRKYDYWGQGTQVTVSS | high polyreactivity
QVQLVESGGGLVQAGGSLRLSCSASGFIFTLYAMGWYRQAHGKERELVASIRGSGVNTYYADSVKGRFTISRDNAKNTDYLQMNSLKPEDTAVYYCAARTYRRPYYSWGQGTQVTVSS | high polyreactivity
QVQLVESGGGLVQAGGSLRLSCSASGFIFYGYTMGWYRQAPGKERELVAAITFSGGRTYYADSVKGRFTISRDHAKNTVYLQMNSLKPEDSAVYYCAALHYGRYRMDYWGQGTQVTVSS | high polyreactivity
QVQLVESGGGLVQAGGSLRLSCSASGFILSYYARGWYRQSPGKERELVAAISRAGSTNYADSVKGRFTISRDNAKNTVYLQMNSLKPEDTAVYYCNKRQYSARVSRSYDYWGQGTQVTVSS | high polyreactivity
QVQLVESGGGLVQAGGSLRLSCSASGFTFDYYAMGWYRQAPGKERELVAAITWNTVSTYYADSVKGRFTISRDNAKNTVYLQMNSLKPEDTAVYYCAADTQWLYRYDYWGQGTQVTVSS | low polyreactivity
QVQLVESGGGLVQAGGSLRLSCSASGFTFYRYAMGWYRQAPGKERELVAAITSGGSTYYADSVKGRFTISRDNAKNTVYLQMNSLKPEDTAVYYCAAQKARVFRGAWTRYEYWGQGTQVTVSS | high polyreactivity
QVQLVESGGGLVQAGGSLRLSCSASGFTLGFNAMGCYRQAPGKEREFVASITYRGGSTYYADSVKGRFTISRDNAKNTVYLQMNSLKPEDTAVYYCAARHRSSYSLYWGQGTQVTVSS | high polyreactivity
QVQLVESGGGLVQAGGSLRLSCSASGIIFRSYAMGWYRQAPGKERELVAAITGGGTTNYADSVKGRFTISRDNAKNTVYLQMNRLKPEDTAVYYCNAGLDWFWFNEMDYWGQGTQVTVSS | low polyreactivity
QVQLVESGGGLVQAGGSLRLSCSASGIILPVYAMGWYRQAPGKEMELVAAISRDGGSTYYSDSVKGLFTISRDNAKNNVYLLMNSLKPEDTAVYYCNAVWRGIYFNGKFDYWGQGTQVTVSS | high polyreactivity
QVQLVESGGGLVQAGGSLRLSCSASGIIMDPNAMGWYRQAPGKERELVAGITRSGVSTYYSDSVKGRFTISRDNAKNTVYLLMNSLKPEDTAVYYCAKDRIYGSKGEDEDYWGQGSQVTVSS | low polyreactivity
QVQLVESGGGLVQAGGSLRLSCSASGITFGANTMGWYRQAPGKERELVAAITISGGITHYADSVKGRFTISRDHAKNTVYLQMNSLKPEDTAVYYCAAGAYWRLYPYRQRNGGRMYYWGQGTQVTVSS | low polyreactivity
QVQLVESGGGLVQAGGSLRLSCSASGITFWLYDKGWYIQAPGKERELVARITYSGTSTYYADSVKGRFTISRDNAKNTVYLQMNSLEPEDTAVYYCAADLTYHYPRYITYEYWGQGTQVTVSS | low polyreactivity
QVQLVESGGGLVQAGGSLRLSCSASGLTFSYYAMGLYRQAPGTERELVAAITSSGGNTYYADSVKGRFTISRDNAKNTVYLQMNSLKPEDTAVYYCNAVVGLGYNYWGQGNQVTVSS | high polyreactivity
QVQLVESGGGLVQAGGSLRLSCSASGLTFYGYVMGWYRQAPGKERELVASISRSGRRTYYADSVKGRFTISRDNAKNTVYLQMNSLKPEDTAVYYCAAADHVGQEDDYWGLGTQVTVSS | low polyreactivity
QVQLVESGGGLVQAGGSLRLSCSASGRIFAAYAMGWYRQAPGKERELVATITRGGSTYYADSVKGRFTISRDNAKNTVYLQMNSLKPKDTAVYYCAVKRGFTQYKPFNYWGQGTQVTVSS | high polyreactivity
QVQLVESGGGLVQAGGSLRLSCSASGRIFPFNDMGWYRQAPGKEREFVADISDNGGSTYADSVKGRFTISRDNAKNTVYLQMNSLKPEDTAVYYCAADLLDISSYDGMDYWGQGTQVTVSS | low polyreactivity
